Assay results as given in US20100129315A1 (published 2010).

Molecular target: human MN protein, entire extra-cellular domain with a C-terminal histag, expressed in HKB-11 cells (human, UniProt Q16790 38-414)
Test: BIAcore; crude Fab

B1: 5aa3 Crude Fab (antibody, V domains shown)
VH: ELVQSGAEVKKPGESLKISCKGSGYSFTGYISWVRQAPGKGLEWMGIIYPGDSYTNYSPSFQGQVTISADKSISTAYLQWSSLKASDTAMYYCARYSGPNWDVMDSWGQGTLVTVSS
VL: DIVLTQPPSVSGAPGQRVTISCSGSSSNIGSYYVNWYQQLPGTAPKLLIYADDKRPSGVPDRFSGSKSGTSASLAITGLQSEDEADYYCQSYDSTKDDSVFGGGTKL
With B1 the Kd was 25 nM.
